# Experimental data published in the RNAGym collection of RNA variant scans (doi:10.1073/pnas.2313332121).
# B1: TPR t1 (parent)
# chain: GACCAAUCUGCCCUCAGAGCUCGAGAACAUCUUCGGAUGCAGAGGAGGCAGGCUUCGGUGGCGCGAUAGCGCCAACGUCCUCAACCUCCAAUGCAUCCCACCACAUGAUGAUGCCUGAAGAGCCUUGGUUUUUUG
# Variants of: B1
# Assay: polymerase ribozyme fitness, log enrichment relative to wild type (log ratio); higher = more active; in vitro selection for triplet polymerase activity
# How it was run: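 PCR was used to build mutant libraries for each subunit of a heterodimeric triplet polymerase ribozyme, which were then transcribed. A single in vitro selection round, in triplicate, used a frozen incubation at −7 °C and recovered extended constructs by gel excision, streptavidin beads and RT-PCR. Fitness is the logarithm of genotype enrichment relative to wild-type enrichment, averaged over replicates with inverse-variance weights. The logarithm is base 2, and after Illumina sequencing only genotypes with ≥10 input reads and ≥1 read per output were kept.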
row,Variant,polymerase ribozyme fitness (log ratio)
1,C62U A84G C101A C123U,-1.03
2,G63U U92G G93C C98G A121G,-5.9
3,C62A U130G U133A,-1.17
4,G63A U87A,-1.03
5,C64G U81A G120C,-6.58
6,C62G C89U A111C U126C U129C,-4.44
7,C64A G113C A118G,-6.38
8,G63U A84C,-1.52
9,C62A U96G G113C C123G U133A,-3.2
10,U67A C70G C89G C123G,-6.22
11,C64U C89G A91U C97U C115U,-2.63
12,C62A C101G,-2.98
13,C62U C104A,-1.29
14,G63C U112G,-0.181
15,G63C U112A,0.435
16,C62A G113C,-3.31
17,G63C C124A,0.234
18,C62U C114A,-1.35
19,G65C G69U C114G G117C C124U G128C,-5.15
20,C64A A66C C104A,-6.61
21,A66U A75U G113A,-2.74
22,G63U C89U A90G U112A C123G,0.558
23,C62U G65U,-3.73
24,A66U G128A,-3.15

row,Variant,polymerase ribozyme fitness (log ratio)
1,A66U U78C U87A A111U,-4.73
2,G65A U87G,-5.9
3,C62G C115U G122U,-5.8
4,C62U C82A,-1.44
5,U67C C82G A119G,-5.87
6,C62A G127A,-2.22
7,C62A G127C,-1.29
8,C64U C82U U106G,-1.27
9,G61U U81A C82U A119G G122U U125A U129C,-1.8
10,G63U U87G,-0.803
11,G63U U87A,-1.45
12,C64U C80U,0.0248
13,C62U U106A G120U C124G,1.54
14,C64U C104A G120A,-0.809
15,G63U U92G G122A,-5.14
16,C62G U92A,-5.63
17,C62A U78C A121C,0.55
18,G63C U81G G120A,-3.19
19,C62A U129A,-2.21
20,C62U C98G G117C G128A U133C,-5.87
21,C62A A91G,-2.78
22,C64U U130C,-0.0426
23,G63A C102A,-3.54
24,G63A U96G U112A A118G,-1.58

row,Variant,polymerase ribozyme fitness (log ratio)
1,C62U U81C C101U,-0.199
2,A68G C115U,-3.75
3,C62G A90U U112A C115G C124U U133C,-5.24
4,G63U C73A A84U C86U A100G A111C,-6.77
5,G63U U133G,-1.94
6,G63U C99U,-4.73
7,C62U C97G A121U,-2.46
8,C62G C86A,-3.17
9,G63C C86A A118G,-2.3
10,C62G G110C,-6.06
11,C62A C82A A121G,1.58
12,G63A U78C A84C U96G U116G,-4.46
13,G61U U106C,0.11
14,G63A A119G G127U,0.478
15,C62A A121U,1.32
16,G63A U78C A91G A121G,0.408
17,C64A C89A G117C G135U,-5.9
18,G63U C85G G113A,-2.68
19,G61U U78C G113C U130G,-2.86
20,C62U G117A,-1.28
21,C62U G117U,-2.6
22,G63A C89A C115G,-4.92
23,C64U C88U C97U,-0.745
24,G63C A75U U87A,-0.774

row,Variant,polymerase ribozyme fitness (log ratio)
1,C62U U81G A83U C89U G117U,-5.98
2,C62G U78A U106A,-1.75
3,C62A C101G C104U,-2.15
4,A66U G93A A121G,0.349
5,C64G U81G C101A G113A,-6.96
6,C62G U133A,-1.22
7,C62A G77A,-2.78
8,C62A G77U,-1.77
9,G63C G93A,-1.12
10,G63C U132A,-0.875
11,C64U C85U,-1.42
12,C64U G113A,-1.32
13,C64U C73U G117C,-3.17
14,G63A A74U,-3.72
15,C62U G63U C101U G135A,-2.36
16,C62U C88G,-0.561
17,C62A C86A,-2.26
18,A66G U96C A118U,-1.1
19,C62G U78G C88G,-3.52
20,C64U C104G U109A,-6.28
21,G63C A121G U130A,0.94
22,C62A C72G,-2.09
23,C62A C72U,-1.74
24,G63U C114A U133A,-3.35

row,Variant,polymerase ribozyme fitness (log ratio)
1,C62A A118C,-2.96
2,G63U A108G,-3.13
3,C62U U106G A121U G122U,-1.15
4,C62U C85A C101G,-3.99
5,C62U C70U U133A,0.14
6,C62U G113C G127C,-3.6
7,C64U C101A G110C,-7.07
8,C64G A111G,-5.39
9,G63U U129C,-1.11
10,C62U U130G,-1.41
11,C62A U78G,-2.46
12,C62G G110A U126G,-5.29
13,C62U C64U C123A G128A,-1.1
14,G65C C114G,-6.28
15,C62A U130G,-1.46
16,C64U C72U,-0.106
17,C64U C73U,0.562
18,C64U C79U C85A A105G,-5.05
19,C62A U96A,-1.77
20,A66U G69U C88G C99A A119G,-5.79
21,C62G A90U,-3.82
22,G63A A119U G135U,-1.7
23,U67G,-7.14
24,U67A,-5.73

row,Variant,polymerase ribozyme fitness (log ratio)
1,U67C,-2.8
2,G63U C123U,-0.374
3,G63C C97A G120C U126A,-6.28
4,G63A A121C,0.832
5,G63A U78C,-0.735
6,G63A U78G,-2.6
7,C64U C101G,-1.69
8,G63A A119U,-1.29
9,C64U C88A,-0.544
10,C64U C88U,-0.605
11,C62U A91U G120A,-2.6
12,G65C C101U,-4.71
13,G63A G113U G127C,-4.93
14,C64U U109A,-4.01
15,G63A C124A,0.45
16,G63A C124G,0.684
17,A66U C73G,-1.75
18,C64U U96C U132A,-0.407
19,C62U C85A,-2.09
20,C64U C82G C89A U109A,-5.15
21,C62U G71C U131G,-0.416
22,C62U U78C C82G A84C G93A C123U U129G,-1.05
23,C64U A118G U129G,-1.07
24,G65A G120C U129A U132C,-6.78

row,Variant,polymerase ribozyme fitness (log ratio)
1,G63A C97U C115A,-0.416
2,C64U A74G U78A,-2.93
3,G63A A90U,-3.43
4,C62A C98U,-2.2
5,G61U G113C,-1.82
6,A66G C72U G107A C123A,-6.86
7,G63U U78A,-0.683
8,G61U U129C,-0.253
9,G61U U129A,-1.21
10,C62U A83C C88U G120A,0.0358
11,G63C C114U A118C,-3.66
12,C64U C82G C88U U131G,-0.778
13,C64U G77A G93C C98U G120A C124G,-1.69
14,C62A G117C U133A,-5.95
15,C62U C86U A100U G110A U129G,-4.42
16,C62U U92A,-3.44
17,C62U U92G,-2.9
18,G63A U112A U125A,-1.17
19,G63U G77U,-3.54
20,G63U G120C G128C,-4.02
21,C62U U87A A121U,2.07
22,G63A C102U U133G,-2.77
23,G63C C86U U112A,0.23
